Common to all, as to assay: cryo-EM structure; portal-tail complex of the native P-SCSP1u virion, symmetry-mismatch reconstruction, C6 symmetry, 3.8 Å; virions in SM buffer
Assay [1] concerns the target P-SCSP1u nozzle protein (gp23) (cyanophage P-SCSP1u).
In assay [2] the target is P-SCSP1u portal protein (gp16) (cyanophage P-SCSP1u).
Assay [3] has as its target P-SCSP1u adaptor protein (gp22) (cyanophage P-SCSP1u).
Assay [4] has as its target P-SCSP1u fiber protein (gp28) (cyanophage P-SCSP1u).

Experimental findings from publication PMC10575957 are described below.

“P-SCSP1u nozzle protein (gp23) (natural protein)” yielded a stoichiometry N in assay [1] of 6.

Regarding “P-SCSP1u portal protein (gp16) (natural protein)”, in assay [2], the stoichiometry N was 12.

For the substance “P-SCSP1u adaptor protein (gp22) (natural protein)”, the stoichiometry N in assay [3] was determined as 12.

In turn, “P-SCSP1u fiber protein (gp28) (natural protein)” gave a stoichiometry N in assay [4] of 3.

What is called stoichiometry N is the number of molecules, sites or subunits per partner or assembly.
